Numbering of substitutions follows the chain as printed.
B1: 210309-1-C (antibody, mouse IgG1, V domains shown)
VH: QVHLQQSGAELARPGASVKLSCKASGYSFTAYGISWVQQRTGQGLEWIGEIYPRSGNTYYSEKFKGKATLTADKSSSTAYMELRSLTSEDSAVYFCARESLLKRLGWYFDVWGTGTTVTVSS
VL: DIQMTQSPASLSASVGETVTITCRASQNIYSFLAWYQQKQGNSPQLLVYNAKTLAEGVPSRFSGSGSGTQFSLKINSLQPEDFGSYYCQHHYGPPLTFGVGTKLELK
notes: Mouse monoclonal from human LPA1 immunization
B2: 210309-2-A (antibody, mouse IgG1, V domains shown)
VH: B1 VH with H3Q, S28T, A31S, Q38K, S61N, K67R, L101I, K103L
VL: B1 VL with E17G, Q27E, S31R, N42K, S85I, V100A
notes: as for B1
B3: 210420-1-H (antibody, mouse IgG1, V domains shown)
VH: QFQLQQSGAELARPGASVKLSCKASGYTFASFGISWVKQRTGQGLEYIGEIYPRSGTTYFNEKFRGKATLTADKSSSTAYMELRSLTSEDSAVYFCAREGVRRYAMDYWGQGTSVTVSS
VL: B1 VL with M4V, Q27G, N42K, N76S, P94I, V100G, E105D
notes: Mouse monoclonal from mouse LPA1 immunization
B4: 210309-1-G (antibody, mouse IgG1, V domains shown)
VH: QVQLQQSGAELARPGASMKLSCRASGYTFTSYGISWVKQRTGQGLEWIGEIYPRSGVTYYNEKFKGRATLTADKSSSTAFMELRSLTSEDSAVYFCARESISLRLGWYFDVWGTGTTVTVSS
VL: B1 VL with E17D, Q27E, S31R, G41R, N42K, Q45H, V100A, K107T
notes: as for B1
B5: 211222-1-A (antibody, mouse IgG1, V domains shown)
VH: QVQVHQSGAELARPGASVRLSCKASGYTFTSFGVNWVKQRTGQGLEWIGQIYPRSGTTYHNERFKGKATLTADKSSSTAYMELRSLTSEDSAVYFCAREGDRYSLAYWGQGTLVTVSA
VL: B1 VL with Q27E, S31R, N42K, Y49S, S77Y, S85N, P94I, V100A
notes: as for B1
B6: 210310-1-D (antibody, mouse IgG1, V domains shown)
VH: B5 VH with H5Q, S55T, A72T
VL: B1 VL with Q27E, S31R, N42K, A55V, S77N, P94I, V100A
notes: as for B1

Legend:
human LPA1 [1] = target: T1, human LPA1 (human, UniProt Q92633 1-364); assay: cell-based or functional assay
T1 sequence (Q92633 whole entry): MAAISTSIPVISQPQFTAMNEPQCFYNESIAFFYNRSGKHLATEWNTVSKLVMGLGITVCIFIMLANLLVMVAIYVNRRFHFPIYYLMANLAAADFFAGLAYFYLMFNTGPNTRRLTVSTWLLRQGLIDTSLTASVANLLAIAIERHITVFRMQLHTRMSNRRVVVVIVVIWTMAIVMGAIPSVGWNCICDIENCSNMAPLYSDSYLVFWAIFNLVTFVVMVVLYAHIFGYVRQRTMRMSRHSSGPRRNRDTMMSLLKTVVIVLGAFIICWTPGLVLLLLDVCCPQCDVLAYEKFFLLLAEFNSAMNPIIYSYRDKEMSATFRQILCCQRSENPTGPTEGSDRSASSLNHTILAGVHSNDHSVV

mouse LPA1 [2] = target: T2, mouse LPA1 (mouse, UniProt P61793 1-364); assay: cell-based or functional assay
T2 sequence (P61793 whole entry): as the sequence (Q92633 whole entry) above, with I4A, I8S, P22Q, H40Y, I61V, E193D, N194H, I269V, S331N, T335N counted along it

human LPA1 [3] = target: T1, human LPA1; assay: cell-based or functional assay; remark: listed apart in the source
[4] = target: T3, human LPA2 with FLAG tag (human LPA2 gene transfected cell) (human, UniProt Q9HBW0 1-348); assay: flow cytometry, transfected HEK293FT cells, histogram shift
T3 construct: also called EDG4; not shown: FLAG tag added at the 5' terminal of the gene
T3 sequence (Q9HBW0 other isoform, or with tags, fused parts or gaps): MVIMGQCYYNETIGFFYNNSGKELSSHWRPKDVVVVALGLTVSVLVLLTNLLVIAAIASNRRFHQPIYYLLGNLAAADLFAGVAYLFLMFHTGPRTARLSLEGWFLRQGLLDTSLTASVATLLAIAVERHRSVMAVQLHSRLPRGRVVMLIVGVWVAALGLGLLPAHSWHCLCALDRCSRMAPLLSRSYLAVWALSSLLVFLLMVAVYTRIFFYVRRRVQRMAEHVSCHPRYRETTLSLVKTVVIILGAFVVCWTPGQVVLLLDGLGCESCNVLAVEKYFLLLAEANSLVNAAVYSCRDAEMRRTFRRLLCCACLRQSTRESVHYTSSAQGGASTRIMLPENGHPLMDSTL
Procedure: (§1) BTEK293FT cell was transfected with 10 μg of an expression vector carrying each synthetic gene using Lipofectamine 2000, to prepare a human LPA1 gene transfected cell, a mouse LPA1 gene transfected cell, a human LPA2 gene transfected cell, a mouse LPA2 gene transfected cell, a human LPA3 gene transfected cell, and a mouse LPA3 gene transfected cell.
(§2) The next day, the cells were washed with PBS, then detached from the cell culture dishes by an enzyme-free cell dissociation buffer (Thermo Fisher Scientific, Inc.), then washed with PBS, and then collected by centrifugation. Goat serum (Thermo Fisher Scientific, Inc.) was diluted by 2 times in FACS buffer (PBS containing 1% o of FBS), into which the cells were suspended at 1×10⁷ cells/mL. This suspension was allowed to stand at 4° C. for 30 minutes to block the cells. The cells were collected by centrifugation and suspended in FACS buffer at 4×10⁶ cells/mL, and this suspension was dispensed into a V-bottom 96-well plate (Thermo Fisher Scientific, Inc.) at 25 μL (1×10⁵ cells)/well.
(§3) The cells were collected by centrifugation and washed with 120 μL of FACS buffer. This washing operation was repeated twice. To the cell sediment, 25 μL each of Goat Anti-Mouse IgG H&L (DyLight 650) (Abcam) that was a secondary antibody diluted by 500 times in FACS buffer was dispensed, then suspended, and then allowed to stand at 4° C. for 1 hour. The cells were washed twice, then suspended in 50 μL of FACS buffer, and the whole content thereof was transferred to a V-bottom 96-well plate (Greiner), to measure the binding of antibodies to the cells using a flow cytometer (Agilent Novocyte).

[5] = target: T4, human LPA3 with FLAG tag (human LPA3 gene transfected cell) (human, UniProt Q9UBY5 1-353); assay: as above
T4 construct: also called EDG7; not shown: FLAG tag added at the 5' terminal of the gene
T4 sequence: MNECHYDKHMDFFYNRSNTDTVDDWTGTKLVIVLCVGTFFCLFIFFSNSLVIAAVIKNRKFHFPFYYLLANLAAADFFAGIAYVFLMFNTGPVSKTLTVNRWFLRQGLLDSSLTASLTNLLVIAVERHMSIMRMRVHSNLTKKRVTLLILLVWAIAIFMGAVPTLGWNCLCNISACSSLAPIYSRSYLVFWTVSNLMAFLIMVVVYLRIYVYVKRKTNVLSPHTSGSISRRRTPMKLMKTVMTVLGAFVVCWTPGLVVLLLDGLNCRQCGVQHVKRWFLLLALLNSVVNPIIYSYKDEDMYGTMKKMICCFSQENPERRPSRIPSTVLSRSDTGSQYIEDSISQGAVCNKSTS
Procedure: as §1, §2, §3

[6] = target: T5, mouse LPA2 with FLAG tag (mouse LPA2 gene transfected cell) (mouse, UniProt Q9JL06 1-348); assay: as above
T5 construct: not shown: FLAG tag added at the 5' terminal of the gene
T5 sequence (Q9JL06 whole entry): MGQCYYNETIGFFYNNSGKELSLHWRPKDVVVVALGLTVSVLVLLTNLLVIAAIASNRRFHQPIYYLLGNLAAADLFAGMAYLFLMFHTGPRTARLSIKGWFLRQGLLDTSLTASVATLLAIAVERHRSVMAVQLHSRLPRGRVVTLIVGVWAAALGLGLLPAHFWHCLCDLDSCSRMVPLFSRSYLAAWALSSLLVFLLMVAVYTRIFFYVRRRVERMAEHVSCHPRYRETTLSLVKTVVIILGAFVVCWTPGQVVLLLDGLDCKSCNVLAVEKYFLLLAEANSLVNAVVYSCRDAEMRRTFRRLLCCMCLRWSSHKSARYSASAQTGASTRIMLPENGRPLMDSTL
Procedure: as §1, §2, §3

[7] = target: T6, mouse LPA3 with FLAG tag (mouse LPA3 gene transfected cell) (mouse, UniProt Q9EQ31 1-354); assay: as above
T6 construct: not shown: FLAG tag added at the 5' terminal of the gene
T6 sequence: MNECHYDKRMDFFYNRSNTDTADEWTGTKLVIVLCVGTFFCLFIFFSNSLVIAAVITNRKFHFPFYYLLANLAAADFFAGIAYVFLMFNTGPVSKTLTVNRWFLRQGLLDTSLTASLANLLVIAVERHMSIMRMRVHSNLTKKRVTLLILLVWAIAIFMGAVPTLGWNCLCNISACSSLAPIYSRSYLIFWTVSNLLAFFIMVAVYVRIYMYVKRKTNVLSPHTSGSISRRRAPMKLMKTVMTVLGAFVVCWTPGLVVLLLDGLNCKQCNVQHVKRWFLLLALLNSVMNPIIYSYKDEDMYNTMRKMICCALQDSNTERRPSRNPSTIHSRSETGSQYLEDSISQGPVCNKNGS
Procedure: as §1, §2, §3

human LPA1 [8] = target: T1, human LPA1; assay: flow cytometry, human LPA1-stably expressing CHO cells, median fluorescence intensity
Excerpt: (§4) The human LPA1-stably expressing CHO cell and the mouse LPA1-stably expressing CHO cell were washed with PBS, then detached from the cell culture dishes by an enzyme-free cell dissociation buffer (Thermo Fisher Scientific, Inc.), then washed with PBS, and then collected by centrifugation. The human LPA1-stably expressing CHO cell and the mouse LPA1-stably expressing CHO cell were suspended at 1×10⁷ cells/mL in Fc Block (Sci-Tech Biosciences, Inc.) diluted by 500 times in FACS buffer, and then allowed to stand at 4° C. for 30 minutes to block the cells. The cells were collected by centrifugation and suspended in FACS buffer at 4×10⁶ cells/mL, and this suspension was dispensed into a V-bottom 96-well plate (Thermo Fisher Scientific, Inc.) at 25 μL (1×10⁵ cells)/well. As primary antibodies, the eleven types of LPA1 antibodies produced and purified by the method described above and a mouse isotype control antibody (Fujifilm Wako Pure Chemicals Corporation) were diluted stepwise, which was added to each well at 25 μL/well, and allowed to stand at 4° C. for 1 hour. The cells were collected by centrifugation and washed with 120 μL of FACS buffer. This washing operation was repeated twice. To the cell sediment, 25 μL each of Goat Anti-Mouse IgG H&L (DyLight 650) (Abcam) that was a secondary antibody diluted by 500 times in FACS buffer was dispensed, then suspended, and then allowed to stand at 4° C. for 1 hour. The cells were washed twice, then suspended in 50 μL of FACS buffer, and the binding of antibodies to the cells was measured using a flow cytometer (Agilent Novocyte).
(§5) A graph was created, in which a concentration of the antibody was plotted on the […] axis, and a median fluorescence intensity of the flow cytometer histogram was plotted on the horizontal axis. All of the eleven antibodies were confirmed to dose-dependently bind to the human LPA1-stably expressing CHO cell and the mouse LPA1-stably expressing CHO cell. The results of the binding of each antibody to the human LPA1-stably expressing CHO cell are presented in FIG. 2A to FIG. 2K, and the results of the binding of each antibody to the mouse LPA1-stably expressing CHO cell are presented in FIG. 3A to FIG. 3K.

mouse LPA1 [9] = target: T2, mouse LPA1; assay: flow cytometry, mouse LPA1-stably expressing CHO cells, median fluorescence intensity
Excerpt: as §4, §5

mouse LPA1 [10] = target: T2, mouse LPA1; assay: cell-based or functional assay; remark: listed apart in the source

Binder	Intracellular cAMP signaling inhibition (Inhibition rate %/100 nM) (human LPA1 [1])	Intracellular cAMP signaling inhibition (Inhibition rate %/100 nM) (mouse LPA1 [2])	Intracellular cAMP signaling inhibition IC50 (human LPA1 [3])	binding result [4]	binding result [5]	binding result [6]	binding result [7]	EC50 (human LPA1 [8])	EC50 (mouse LPA1 [9])	Intracellular cAMP signaling inhibition IC50 (mouse LPA1 [10])
B1	47%	20%	25.1 nM	no binding (tested: 25 g/mL (so in the source))	no binding (tested: 25 g/mL (so in the source))	no binding (tested: 25 g/mL (so in the source))	no binding (tested: 25 g/mL (so in the source))	1.7 nM	1.8 nM	
B2	32%	32%	21.8 nM	no binding (tested: 25 g/mL (so in the source))	no binding (tested: 25 g/mL (so in the source))	no binding (tested: 25 g/mL (so in the source))	no binding (tested: 25 g/mL (so in the source))	1.4 nM	2.1 nM	
B3	22%	37%	49.1 nM	no binding (tested: 25 g/mL (so in the source))	no binding (tested: 25 g/mL (so in the source))	no binding (tested: 25 g/mL (so in the source))	no binding (tested: 25 g/mL (so in the source))	2.5 nM	1.6 nM	
B4	34%	36%	40.9 nM	no binding (tested: 25 g/mL (so in the source))	no binding (tested: 25 g/mL (so in the source))	no binding (tested: 25 g/mL (so in the source))	no binding (tested: 25 g/mL (so in the source))	1.8 nM	2.4 nM	197 nM
B5	1%	30%	69.9 nM	no binding (tested: 25 g/mL (so in the source))	no binding (tested: 25 g/mL (so in the source))	no binding (tested: 25 g/mL (so in the source))	no binding (tested: 25 g/mL (so in the source))	2.3 nM	2 nM	
B6	22%	25%	60.5 nM	no binding (tested: 25 g/mL (so in the source))	no binding (tested: 25 g/mL (so in the source))	no binding (tested: 25 g/mL (so in the source))	no binding (tested: 25 g/mL (so in the source))	2.7 nM	2.1 nM	
